Publication PMC2063547 (The Journal of Cell Biology, 2006)

What was measured:
[1] = target: full-length human αIIb cytoplasmic tail peptide (human); assay: ELISA
[2] = target: T1, calcium and integrin binding protein 1 (CIB1), recombinant (human, UniProt Q99828 1-191); assay: ELISA
T1 sequence (looked up): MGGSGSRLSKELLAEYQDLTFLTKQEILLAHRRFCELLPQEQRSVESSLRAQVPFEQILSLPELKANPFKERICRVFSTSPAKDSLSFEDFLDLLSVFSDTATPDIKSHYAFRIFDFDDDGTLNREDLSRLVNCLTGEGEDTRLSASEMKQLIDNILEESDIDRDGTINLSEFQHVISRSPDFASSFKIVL

Molecule: talin head domain (THD), recombinant (domain or fragment)
- IC50 [1]: 25 nM

Molecule: LVLAMWKVGFFKRNRPPLEEDDEEGQ [full-length human αIIb cytoplasmic tail peptide]
- binding result [2]: binds
